Measured values published in the supplement of paper PMC10567573.

B1: EPB41L3 (parent)
chain: FRFAPNHTKELEDKVIELHKSHRG
B2: TRIM43 (parent)
chain: NRFRVEISFHFEVTNHNIRLFEDV

Variants of: B1
Test: protein stability index of a GFP-peptide fusion (GPS, HEK-293T) (PSI 1-6); higher = more stable
Settings: c terminus: a fixed tail appended
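Note: lentivirally expressed fusions sorted by FACS into six bins by GFP to DsRed ratio, PSI derived from sequencing read proportions per bin multiplied by bin number.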

Protein stability index: each site, then its substitutions
R23: L 1.92; M 1.73; N 2; P 1.93; Q 2.87; S 1.85; T 2.07; V 1.83; W 1.54; Y 2.78
G24: A 1.93; C 1.36; D 1.75; E 2.34; F 2.31; H 1.97; I 2.04; K 2.06; L 2.02; M 2.53; N 2.45; P 2.19; Q 2.74; R 2.05; S 1.94; T 1.73; V 1.74; W 1.84; Y 1.56

Variants of: B2
Test: as above
Settings: c terminus: a fixed tail appended

Protein stability index, by site and new letter:
N1: C 3.11; D 3.89; L 3.45; Q 3.07; R 2.37; T 1.62
R2: D 2.46; I 3.39; P 2.38; Q 3.46; S 1.5; V 1.92; W 2.21; Y 2.89
F3: A 3.07; C 2.54; D 3.13; E 1.53; I 2.35; K 2.36; M 2.92; N 3.43; T 2.7; V 2.2
R4: A 3.36; C 2.91; E 3.4; G 3.21; I 3.43; K 2.96; L 2.88; N 2.75; T 2.08
V5: A 3.44; D 2.08; E 1.46; F 2.78; G 2.86; K 3.27; N 2.11; P 2.8; Q 1.79; R 1.5; S 2.08; T 3.37; W 2.53
E6: A 2.86; D 2.34; G 2.02; H 4.48; K 3.25; L 2.03; M 2.64; P 2.27; S 3.18; T 4.38; V 3.86
I7: D 2.44; E 1.91; F 3.57; G 2.43; K 2.12; N 2.06; P 1.81; R 2.85; T 1.68; Y 3.41
S8: C 2.02; G 2.38; L 3.72; M 2.39; P 2.36; R 2.43
F9: A 2.87; D 2.27; E 1.95; G 2; H 1.09; K 1.85; N 2.22; P 2.08; Q 1.28; R 1.76; S 1.91; T 2.01
H10: E 2.98; N 2.63; P 3.64; Q 4.08; S 3.4
F11: D 1.27; E 1.03; I 2.83; K 1.46; P 1.58; Q 2.38; S 2.74; T 2.44
E12: A 2.58; I 1.68; L 2.91; N 1.39; W 2.64; Y 2.51
V13: D 1.93; E 4.46; H 2.26; M 2.35; P 4.3
T14: E 2.04; H 3.49; L 2.29; N 3.31; Y 3.83
N15: C 3.41; D 2.5; E 2.92; F 3.62; G 2.28; L 3.22; M 2.49; P 3.72; S 2.18; T 1.49; V 2.13; W 3.34; Y 3.23
H16: A 3.14; C 3.06; L 1.82; R 4.01; S 2.05; V 1.07; Y 2.9
N17: C 3.65; D 4.85; F 2.85; I 1.37
